The record followed here is patent US20120270800A1 (published 2012).

The target in this test is mSin3. The test can be described thus: fluorescence polarization.

Positions of bridges follow the written chain, without caps; N, C: chain ends. Non-standard residues stand in square brackets, D forms with d. No end group written: not given here. S5 = C=CCCC[C@](C)(N)C(=O)O; βAla = NCCC(=O)O

In turn, [βAla]VRRRI[S5]MLL[S5]AANYLER (staple 7-11; also: FITC-conjugated in the assay, site not given here) [SID2] displayed a Kd of 12 nM.
